The text below walks through data of US20240261333A1, “NOVEL TARGETS FOR ENHANCING ANTI-TUMOR IMMUNITY” (THE BROAD INSTITUTE, INC., priority 2021, published 2024).

This test addresses T1, B3GNT2 (Homo sapiens, UniProt Q9NY97).
T1 construct: The respective ORFs of candidate genes [CD274 (NM_014143), MCL1 (NM_021960), JUNB (NM_002229), and B3GNT2 (NM_006577)] were synthesized; expressed in transfected cells; host or cells: A375 melanoma cells (lentiviral ORF overexpression)
T1 sequence (Q9NY97 1-397): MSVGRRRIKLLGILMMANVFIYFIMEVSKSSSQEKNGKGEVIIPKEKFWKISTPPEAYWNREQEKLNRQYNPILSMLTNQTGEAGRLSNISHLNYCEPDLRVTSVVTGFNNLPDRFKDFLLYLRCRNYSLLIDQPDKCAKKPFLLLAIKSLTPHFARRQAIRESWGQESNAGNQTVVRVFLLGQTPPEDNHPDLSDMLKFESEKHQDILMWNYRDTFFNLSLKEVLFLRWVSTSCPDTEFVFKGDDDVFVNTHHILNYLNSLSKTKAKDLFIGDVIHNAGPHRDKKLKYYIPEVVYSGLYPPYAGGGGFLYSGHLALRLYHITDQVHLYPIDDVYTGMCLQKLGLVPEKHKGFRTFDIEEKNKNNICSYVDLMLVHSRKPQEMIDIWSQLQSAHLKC
As to the kind of experiment: Co-IP of FLAG-tagged B3GNT2 followed by mass spectrometry. The test is classed as cell-based. Details: C-term IgG / C-term flag: unit not given here. As to the method:
Cells were plated in 10-cm cell culture dishes and grown to 60-80% confluency. For each condition, two biological replicates were harvested for co-IP. Cells were washed with PBS and 4 mL of lysis buffer (20 mM HEPES, 1% Triton X-100, 150 mM NaCl, 1 mM EDTA, and 10% glycerol) containing protease inhibitor cocktail was added. Cells were scraped and lysate was incubated at 4° C. under rotary agitation for 1 h. Lysate was centrifuged at 14,000×g for 10 min at 4° C. Supernatant was transferred to a new tube and an aliquot was taken as the input. […] For Western blots, 10 μg/mL Chicken Anti-FLAG (Aves labs ET-DY100) and IgY control (R&D Systems AB-101-C) antibodies were biotinylated (Thermo Fisher Scientific 90407) and added to the respective conditions. Lysates with antibodies were incubated at 4° C. under rotary agitation overnight. For each mL of lysate, 50 μL of Pierce Protein A/G Magnetic Beads (Mass spectrometry; Thermo Fisher Scientific 88803) or Pierce Streptavidin Magnetic Beads (Western blot; Thermo Fisher Scientific 88817) was washed twice with lysis buffer. Lysates with antibodies were added to the beads and incubated at 4° C. under rotary agitation for 4 h. Beads were washed with lysis buffer 3 times and resuspended in lysis buffer for storage. […] This solution was subjected to solid phase extraction to concentrate the peptides and remove unwanted reagents followed by injection onto a Shimadzu HPLC with fraction collector. Eight fractions were collected and after concentration were injected on a Waters NanoAcquity HPLC equipped with a self-packed Aeris 3 μm C18 analytical column 0.075 mm by 20 cm, (Phenomenex). Peptides were eluted using standard reverse-phase gradients. The effluent from the column was analyzed using a Thermo Orbitrap Elite mass spectrometer (nanospray configuration) operated in a data dependent manner for 54 minutes. […] Scaffold Q+S (Proteome Software) was used to provide consensus reports for the identified proteins.

Setting [1] is: Co-IP with FLAG antibody, C-terminally FLAG-tagged B3GNT2, mass spectrometry count, unit not given.
[2] abbreviates: Co-IP with FLAG antibody, N-terminally FLAG-tagged B3GNT2, mass spectrometry count, unit not given.
Where [3] appears, read: Co-IP with IgG control antibody, C-terminally FLAG-tagged B3GNT2, mass spectrometry count, unit not given.
The mark [4] stands for this setting: Co-IP with IgG control antibody, N-terminally FLAG-tagged B3GNT2, mass spectrometry count, unit not given.
Setting [5] is: Co-IP followed by mass spectrometry of B3GNT2, C-term tag, FLAG pull-down.
Setting [6] is: Co-IP followed by mass spectrometry of B3GNT2, C-term tag, IgG pull-down.
Where [7] appears, read: Co-IP followed by mass spectrometry of B3GNT2, N-term tag, FLAG pull-down.
Setting [8] is: Co-IP followed by mass spectrometry of B3GNT2, N-term tag, IgG pull-down.

In the case of TOR1AIP2, under setting [1], the C-term flag came to 2. The “N-term FLAG” value under setting [2] stood at 0. In addition, the “C-term IgG” value under setting [3] was found to be 0. Under setting [4], the “N-term IgG” value was determined as 0.

GCN1: the C-term flag under setting [1] is on record as 4. Further, under setting [2], the “N-term FLAG” value is given as 14. The “C-term IgG” value under setting [3] is given as 0. Further, the “N-term IgG” value under setting [4] is given as 0.

In the case of ATM, under setting [1], the C-term flag stood at 0. In addition, the “N-term FLAG” value under setting [2] came to 3. Further, the “C-term IgG” value under setting [3] was determined as 0. Besides, under setting [4], the “N-term IgG” value is on record as 0.

In turn, RNASE1 gave a C-term flag under setting [1] of 2. Under setting [2], the “N-term FLAG” value stood at 0. Besides, the “C-term IgG” value under setting [3] was 0. In addition, the “N-term IgG” value under setting [4] was 0.

Substance CLTC came in with a C-term flag under setting [5] of 7. Besides, the “C-term IgG” value under setting [6] turned out to be 5. In addition, the “N-term FLAG” value under setting [7] turned out to be 6. In addition, under setting [8], the “N-term IgG” value is given as 6.

Substance CTSD displayed a C-term flag under setting [1] of 4. Under setting [2], the “N-term FLAG” value stood at 3. Also, under setting [3], the “C-term IgG” value stood at 0. Moreover, the “N-term IgG” value under setting [4] was 3.

Consider ABCD1, for which the C-term flag under setting [1] was found to be 2. Further, the “N-term FLAG” value under setting [2] turned out to be 0. Moreover, under setting [3], the “C-term IgG” value is recorded as 0. Moreover, under setting [4], the “N-term IgG” value is on record as 0.

Under setting [5], CFL1 returned a C-term flag of 6. Under setting [6], the “C-term IgG” value is 3. Also, the “N-term FLAG” value under setting [7] is on record as 5. Under setting [8], the “N-term IgG” value is 3.

With DHX9, the C-term flag under setting [5] came to 5. Also, under setting [6], the “C-term IgG” value is on record as 0. Also, under setting [7], the “N-term FLAG” value worked out at 0. For the same substance, under setting [8], the “N-term IgG” value came out at 0.

The substance TRIM21 showed a C-term flag under setting [5] of 0. Moreover, the “C-term IgG” value under setting [6] stood at 0. Moreover, the “N-term FLAG” value under setting [7] came out at 6. In addition, under setting [8], the “N-term IgG” value was found to be 0.

For the substance DNAJA1, under setting [1], the C-term flag worked out at 10. Also, under setting [2], the “N-term FLAG” value came to 6. Besides, the “C-term IgG” value under setting [3] was 0. For the same substance, the “N-term IgG” value under setting [4] was 0.

For IPO13, under setting [1], the C-term flag was found to be 2. For the same substance, the “N-term FLAG” value under setting [2] came out at 0. Moreover, the “C-term IgG” value under setting [3] is on record as 0. In addition, the “N-term IgG” value under setting [4] is recorded as 0.

Consider PXN, for which the C-term flag under setting [1] came to 0. For the same substance, the “N-term FLAG” value under setting [2] is listed as 2. Besides, the “C-term IgG” value under setting [3] was found to be 0. In addition, the “N-term IgG” value under setting [4] is listed as 0.

HSPA5 returned a C-term flag under setting [1] of 130. Under setting [2], the “N-term FLAG” value stood at 70. The “C-term IgG” value under setting [3] is on record as 12. The “N-term IgG” value under setting [4] is reported as 9.

With S100A8, under setting [1], the C-term flag amounted to 3. Besides, under setting [2], the “N-term FLAG” value worked out at 15. In addition, the “C-term IgG” value under setting [3] is 5. In addition, the “N-term IgG” value under setting [4] was found to be 4.

For S100A9, the C-term flag under setting [1] is listed as 9. In addition, the “N-term FLAG” value under setting [2] was 18. For the same substance, the “C-term IgG” value under setting [3] turned out to be 5. In addition, under setting [4], the “N-term IgG” value came to 0.

On to DNAJA2, for which the C-term flag under setting [5] is recorded as 3. In addition, under setting [6], the “C-term IgG” value was found to be 0. In addition, the “N-term FLAG” value under setting [7] stood at 3. In addition, the “N-term IgG” value under setting [8] came to 0.

Under setting [1], ABCF1 came in with a C-term flag of 2. The “N-term FLAG” value under setting [2] is 0. The “C-term IgG” value under setting [3] was 0. Also, under setting [4], the “N-term IgG” value is reported as 0.

PPIB had a C-term flag under setting [1] of 2. In addition, the “N-term FLAG” value under setting [2] was determined as 0. Also, the “C-term IgG” value under setting [3] came out at 0. Besides, the “N-term IgG” value under setting [4] is on record as 0.

Under setting [1], TUBB2A registered a C-term flag of 0. Besides, the “N-term FLAG” value under setting [2] stood at 128. Also, under setting [3], the “C-term IgG” value is 0. Moreover, the “N-term IgG” value under setting [4] is 0.

Turning to GAPDH, the C-term flag under setting [1] is recorded as 16. Moreover, the “N-term FLAG” value under setting [2] was found to be 18. For the same substance, under setting [3], the “C-term IgG” value was 6. For the same substance, under setting [4], the “N-term IgG” value came out at 11.

In turn, SQSTM1 returned a C-term flag under setting [1] of 43. Also, the “N-term FLAG” value under setting [2] is listed as 3. Further, the “C-term IgG” value under setting [3] is 3. Besides, under setting [4], the “N-term IgG” value is reported as 0.

Consider PRRC2A, for which the C-term flag under setting [5] was 5. In addition, the “C-term IgG” value under setting [6] is recorded as 3. The “N-term FLAG” value under setting [7] is 2. For the same substance, the “N-term IgG” value under setting [8] was 3.

Under setting [1], PSMA4 came in with a C-term flag of 0. Under setting [2], the “N-term FLAG” value is 2. In addition, the “C-term IgG” value under setting [3] was found to be 0. Besides, the “N-term IgG” value under setting [4] came out at 0.

On to CCT3, for which, under setting [5], the C-term flag came out at 5. Under setting [6], the “C-term IgG” value came to 0. Also, the “N-term FLAG” value under setting [7] was 0. The “N-term IgG” value under setting [8] is reported as 0.

With YBX3, the C-term flag under setting [1] is listed as 7. Under setting [2], the “N-term FLAG” value is recorded as 0. The “C-term IgG” value under setting [3] was found to be 0. Moreover, the “N-term IgG” value under setting [4] is given as 0.

UGGT1 gave a C-term flag under setting [1] of 5. The “N-term FLAG” value under setting [2] was found to be 2. In addition, the “C-term IgG” value under setting [3] was found to be 0. For the same substance, under setting [4], the “N-term IgG” value came to 0.

For the substance SYNM, the C-term flag under setting [5] came to 5. For the same substance, under setting [6], the “C-term IgG” value turned out to be 2. Besides, the “N-term FLAG” value under setting [7] is on record as 5. For the same substance, under setting [8], the “N-term IgG” value worked out at 5.
